Results: publication PMC10511499, “Conserved roles for the dynein intermediate chain and Ndel1 in assembly and activation of dynein” (Nature Communications, 2023)
Changes are numbered by the printed parent chain. Names and notes keep the numbering of the source.

B1: human Ndel1 coiled-coil domain (Ndel1^CC, residues 1-195) (domain or fragment, UniProt Q9GZM8 1-195, looked up)
chain: MDGEDIPDFSSLKEETAYWKELSLKYKQSFQEARDELVEFQEGSRELEAELEAQLVQAEQRNRDLQADNQRLKYEVEALKEKLEHQYAQSYKQVSVLEDDLSQTRAIKEQLHKYVRELEQANDDLERAKRATIVSLEDFEQRLNQAIERNAFLESELDEKESLLVSVQRLKDEARDLRQELAVRERQQEVTRKSA
notes: Ndel1, human, coiled-coil domain, residues 1-195; also called NudEL^CC; source: E. coli BL21-CodonPlus (DE3)-RIPL, purified (Strep-tactin XT, HiTrap Q, SEC)
B2: full-length yeast Ndl1 with C-terminal FLAG-SNAPf (natural protein, S. cerevisiae, UniProt Q06568 1-189, looked up)
chain: MVPNLDLETAIQIISSLETQLSELEGATKEYENDLEQVISKLKSDLLESQQQNKCNKKQITDLEIQVDELENENIQLRNKIETLQLESDRRLERNVLLEHELLDTKEALQKLRVSKEEATSGETRRNTRSLPSQNKKMKLFKDTIKVSTTSSTLYLQNMAKTNNAARSHCNIPNTQITQSTVIATTSSV
modifications: JFX554-SNAP or JFX650-SNAP ligand on the SNAPf tag
notes: Ndl1, yeast homolog of Ndel1, full length; also called Ndl1-SNAPf; source: S. cerevisiae, overexpressed from GAL1p; purified (IgG beads, TEV elution, SEC); not shown: SNAPf, C-terminal, kept; ZZ, C-terminal, cleaved; 8xHis, C-terminal, cleaved
B3: LIS1, wild type, as used in mass photometry (construct not told) (natural protein, human, UniProt P43034 1-410, looked up)
chain: MVLSQRQRDELNRAIADYLRSNGYEEAYSVFKKEAELDVNEELDKKYAGLLEKKWTSVIRLQKKVMELESKLNEAKEEFTSGGPLGQKRDPKEWIPRPPEKYALSGHRSPVTRVIFHPVFSVMVSASEDATIKVWDYETGDFERTLKGHTDSVQDISFDHSGKLLASCSADMTIKLWDFQGFECIRTMHGHDHNVSSVAIMPNGDHIVSASRDKTIKMWEVQTGYCVKTFTGHREWVRMVRPNQDGTLIASCSNDQTVRVWVVATKECKAELREHEHVVECISWAPESSYSSISEATGSETKKSGKPGPFLLSGSRDKTIKMWDVSTGMCLMTLVGHDNWVRGVLFHSGGKFILSCADDKTLRVWDYKNKRCMKTLNAHEHFVTSLDFHKTAPYVVTGSVDQTVKVWECR
notes: LIS1, human; also called WT LIS1; source: Sf9 cells, purified
B4: full-length yeast Pac1 with C-terminal FLAG-SNAPf (natural protein, S. cerevisiae, UniProt P39946 1-494, looked up)
chain: MTNWQQQLPLTDTQKNELDKSVLRYLNWNYKQTVRHEHAQDYESVRHAIVTLSGFLLQESVDRQEFISNNDTSNESMVDIDELLLPKKWNSIVRLQKKIIELEQNTETLVSQIKDLNTQVSELAQFKPTTSNGTSAHNVLKWIPRNLPSCLINVESSVTSVKLHPNLPIVFVATDHGKLYAFDLFNYTIPLASLQSHTKAITSMDVLFTNYTNSSKKNYLVIVTASKDLQIHVFKWVSEECKFQQIRSLLGHEHIVSAVKIWQKNNDVHIASCSRDQTVKIWDFHNGWSLKTFQPHSQWVRSIDVLGDYIISGSHDTTLRLTHWPSGNGLSVGTGHEFPIEKVKFIHFIEDSPEIRFRTPSTDRYKNWGMQYCVSASRDRTIKIWEIPLPTLMAHRAPIPNPTDSNFRCVLTLKGHLSWVRDISIRGQYLFSCADDKSVRCWDLNTGQCLHVWEKLHTGFVNCLDLDVDFDSNVTPRQMMVTGGLDCKSNVFMR
notes: Pac1, yeast homolog of LIS1, full length; also called WT Pac1; Pac1-SNAPf; source: S. cerevisiae, overexpressed from GAL1p; purified (IgG beads, TEV elution); not shown: 8xHis, N-terminal, cleaved; ZZ, N-terminal, cleaved; SNAPf, C-terminal, kept
B5: yeast Nip100 coiled-coil 1 (Nip100^CC1, residues 97-377) with N-terminal eGFP (domain or fragment, S. cerevisiae, UniProt P33420 97-377, looked up)
chain: EHSLLNGNAAQETIKNLQVKCESLASKLNKIKIENHELKTSVEKLSTNETVLLSKISRLDKLVKELKVENGNMKTHLDNFNHLLDASDSVMAPDLDKGTLLERSHLLQGLLDQTKLSYDKAMKVQEDLLEENTQLLEENAVLSKKISDLGLQLQQTNNTIGDLALQIEAQSKSSNIVDKLTNDNILLTSNIKALNNELEELQAKEKLDENLRITYEQLEQELRLQLSNLQSALENEKEIAGTYIEENSRLKATLESIEAKTSHKFQSLELKVNTLQEELYQ
notes: Nip100, yeast homolog of p150^Glued, coiled-coil 1, residues 97-377; also called GST-eGFP-Nip100^CC1; source: E. coli BL21-CodonPlus (DE3)-RIPL, purified (glutathione agarose, Ulp1 digest, SEC); not shown: GST, N-terminal, cleaved; SUMO, N-terminal, cleaved
B6: yeast Ndl1 coiled-coil domain (Ndl1^CC, residues 2-132) (domain or fragment, S. cerevisiae, UniProt Q06568 2-132, looked up)
chain: VPNLDLETAIQIISSLETQLSELEGATKEYENDLEQVISKLKSDLLESQQQNKCNKKQITDLEIQVDELENENIQLRNKIETLQLESDRRLERNVLLEHELLDTKEALQKLRVSKEEATSGETRRNTRSLP
notes: Ndl1, S. cerevisiae, coiled-coil domain, residues 2-132; No cleavage of the tags is described; also called StrepII-sfGFP-Ndl1^CC; source: E. coli BL21-CodonPlus (DE3)-RIPL, purified (Strep-tactin XT, SEC)
B7: yeast Ndl1^CC E64A R78A (domain or fragment, S. cerevisiae, UniProt Q06568 2-132, looked up)
chain: B6 chain with E63A, R77A
notes: Ndl1, S. cerevisiae, residues 2-132, E64 and R78 changed to alanines; also called interface 2 mutant of Ndl1^CC; source: E. coli BL21-CodonPlus (DE3)-RIPL, purified

What was measured:
[1] = molecular target: the molecule itself; assay: mass photometry; human proteins; preincubated at 0.5-1 µM for 5 min at room temperature, 1:1 molar ratio, measured at 5-20 nM; 90 mM HEPES-KOH pH 7.4, 50 mM K-acetate
[2] = molecular target: T1, yeast dynein complex, wild type (Dyn1, Pac11, Dyn3, Dyn2) (S. cerevisiae, UniProt P36022 1-4092; P40960 1-533; Q04949 1-312; Q02647 1-92, JF503-, JFX549- or JFX646-HaloTag ligand on the HaloTag); assay: TIRF microscopy microtubule recruitment assay; yeast proteins; dynein on taxol-stabilised microtubules held by anti-tubulin antibody; fluorescent partner flowed in, TEV buffer with 1 mM DTT, 5-10 min; intensity along microtubules; conditions: both partners purified
T1 construct: dynein heavy chain Dyn1, S. cerevisiae; dynein intermediate chain Pac11, S. cerevisiae; dynein light-intermediate chain Dyn3, S. cerevisiae; dynein light chain Dyn2, S. cerevisiae; also called WT dynein; HaloTag-Dyn1 complex; source: S. cerevisiae, all genes overexpressed from GAL1p; purified (IgG sepharose, TEV elution); not shown: 8His (also printed 6xHis), N-terminal, cleaved; ZZ, N-terminal, …

[3] = molecular target: B1; assay: mass photometry; human proteins; preincubated at 0.5-1 µM for 5 min at room temperature, 1:1 molar ratio, measured at 5-20 nM; 90 mM HEPES-KOH pH 7.4, 50 mM K-acetate; conditions: both partners purified
[4] = molecular target: T2, yeast dynein^∆ICN complex (Pac11 lacking its N-terminal 43 residues) (S. cerevisiae, UniProt P36022 1-4092; P40960 44-533; Q04949 1-312; Q02647 1-92, JF503-, JFX549- or JFX646-HaloTag ligand on the HaloTag); assay: TIRF microscopy microtubule recruitment assay; yeast proteins; dynein on taxol-stabilised microtubules held by anti-tubulin antibody; fluorescent partner flowed in, TEV buffer with 1 mM DTT, 5-10 min; intensity along microtubules; conditions: both partners purified
T2 construct: dynein heavy chain Dyn1, S. cerevisiae; dynein intermediate chain Pac11, S. cerevisiae, N-terminal 43 residues deleted; dynein light-intermediate chain Dyn3, S. cerevisiae; dynein light chain Dyn2, S. cerevisiae; also called Pac11^∆ICN dynein; source: S. cerevisiae, all genes overexpressed from GAL1p; purified (IgG sepharose, TEV elution); not shown: 8His (also printed 6xHis), N-terminal, …

[5] = molecular target: the molecule itself; assay: mass photometry; yeast proteins; mixed 1:1 at 50-100 nM each, 1-2 min, measured at 10-20 nM; 50 mM Tris pH 8.0, 150 mM K-acetate
[6] = molecular target: B6; assay: as above; conditions: both partners purified

T1 sequence (P36022 whole entry, chain 1 of 4): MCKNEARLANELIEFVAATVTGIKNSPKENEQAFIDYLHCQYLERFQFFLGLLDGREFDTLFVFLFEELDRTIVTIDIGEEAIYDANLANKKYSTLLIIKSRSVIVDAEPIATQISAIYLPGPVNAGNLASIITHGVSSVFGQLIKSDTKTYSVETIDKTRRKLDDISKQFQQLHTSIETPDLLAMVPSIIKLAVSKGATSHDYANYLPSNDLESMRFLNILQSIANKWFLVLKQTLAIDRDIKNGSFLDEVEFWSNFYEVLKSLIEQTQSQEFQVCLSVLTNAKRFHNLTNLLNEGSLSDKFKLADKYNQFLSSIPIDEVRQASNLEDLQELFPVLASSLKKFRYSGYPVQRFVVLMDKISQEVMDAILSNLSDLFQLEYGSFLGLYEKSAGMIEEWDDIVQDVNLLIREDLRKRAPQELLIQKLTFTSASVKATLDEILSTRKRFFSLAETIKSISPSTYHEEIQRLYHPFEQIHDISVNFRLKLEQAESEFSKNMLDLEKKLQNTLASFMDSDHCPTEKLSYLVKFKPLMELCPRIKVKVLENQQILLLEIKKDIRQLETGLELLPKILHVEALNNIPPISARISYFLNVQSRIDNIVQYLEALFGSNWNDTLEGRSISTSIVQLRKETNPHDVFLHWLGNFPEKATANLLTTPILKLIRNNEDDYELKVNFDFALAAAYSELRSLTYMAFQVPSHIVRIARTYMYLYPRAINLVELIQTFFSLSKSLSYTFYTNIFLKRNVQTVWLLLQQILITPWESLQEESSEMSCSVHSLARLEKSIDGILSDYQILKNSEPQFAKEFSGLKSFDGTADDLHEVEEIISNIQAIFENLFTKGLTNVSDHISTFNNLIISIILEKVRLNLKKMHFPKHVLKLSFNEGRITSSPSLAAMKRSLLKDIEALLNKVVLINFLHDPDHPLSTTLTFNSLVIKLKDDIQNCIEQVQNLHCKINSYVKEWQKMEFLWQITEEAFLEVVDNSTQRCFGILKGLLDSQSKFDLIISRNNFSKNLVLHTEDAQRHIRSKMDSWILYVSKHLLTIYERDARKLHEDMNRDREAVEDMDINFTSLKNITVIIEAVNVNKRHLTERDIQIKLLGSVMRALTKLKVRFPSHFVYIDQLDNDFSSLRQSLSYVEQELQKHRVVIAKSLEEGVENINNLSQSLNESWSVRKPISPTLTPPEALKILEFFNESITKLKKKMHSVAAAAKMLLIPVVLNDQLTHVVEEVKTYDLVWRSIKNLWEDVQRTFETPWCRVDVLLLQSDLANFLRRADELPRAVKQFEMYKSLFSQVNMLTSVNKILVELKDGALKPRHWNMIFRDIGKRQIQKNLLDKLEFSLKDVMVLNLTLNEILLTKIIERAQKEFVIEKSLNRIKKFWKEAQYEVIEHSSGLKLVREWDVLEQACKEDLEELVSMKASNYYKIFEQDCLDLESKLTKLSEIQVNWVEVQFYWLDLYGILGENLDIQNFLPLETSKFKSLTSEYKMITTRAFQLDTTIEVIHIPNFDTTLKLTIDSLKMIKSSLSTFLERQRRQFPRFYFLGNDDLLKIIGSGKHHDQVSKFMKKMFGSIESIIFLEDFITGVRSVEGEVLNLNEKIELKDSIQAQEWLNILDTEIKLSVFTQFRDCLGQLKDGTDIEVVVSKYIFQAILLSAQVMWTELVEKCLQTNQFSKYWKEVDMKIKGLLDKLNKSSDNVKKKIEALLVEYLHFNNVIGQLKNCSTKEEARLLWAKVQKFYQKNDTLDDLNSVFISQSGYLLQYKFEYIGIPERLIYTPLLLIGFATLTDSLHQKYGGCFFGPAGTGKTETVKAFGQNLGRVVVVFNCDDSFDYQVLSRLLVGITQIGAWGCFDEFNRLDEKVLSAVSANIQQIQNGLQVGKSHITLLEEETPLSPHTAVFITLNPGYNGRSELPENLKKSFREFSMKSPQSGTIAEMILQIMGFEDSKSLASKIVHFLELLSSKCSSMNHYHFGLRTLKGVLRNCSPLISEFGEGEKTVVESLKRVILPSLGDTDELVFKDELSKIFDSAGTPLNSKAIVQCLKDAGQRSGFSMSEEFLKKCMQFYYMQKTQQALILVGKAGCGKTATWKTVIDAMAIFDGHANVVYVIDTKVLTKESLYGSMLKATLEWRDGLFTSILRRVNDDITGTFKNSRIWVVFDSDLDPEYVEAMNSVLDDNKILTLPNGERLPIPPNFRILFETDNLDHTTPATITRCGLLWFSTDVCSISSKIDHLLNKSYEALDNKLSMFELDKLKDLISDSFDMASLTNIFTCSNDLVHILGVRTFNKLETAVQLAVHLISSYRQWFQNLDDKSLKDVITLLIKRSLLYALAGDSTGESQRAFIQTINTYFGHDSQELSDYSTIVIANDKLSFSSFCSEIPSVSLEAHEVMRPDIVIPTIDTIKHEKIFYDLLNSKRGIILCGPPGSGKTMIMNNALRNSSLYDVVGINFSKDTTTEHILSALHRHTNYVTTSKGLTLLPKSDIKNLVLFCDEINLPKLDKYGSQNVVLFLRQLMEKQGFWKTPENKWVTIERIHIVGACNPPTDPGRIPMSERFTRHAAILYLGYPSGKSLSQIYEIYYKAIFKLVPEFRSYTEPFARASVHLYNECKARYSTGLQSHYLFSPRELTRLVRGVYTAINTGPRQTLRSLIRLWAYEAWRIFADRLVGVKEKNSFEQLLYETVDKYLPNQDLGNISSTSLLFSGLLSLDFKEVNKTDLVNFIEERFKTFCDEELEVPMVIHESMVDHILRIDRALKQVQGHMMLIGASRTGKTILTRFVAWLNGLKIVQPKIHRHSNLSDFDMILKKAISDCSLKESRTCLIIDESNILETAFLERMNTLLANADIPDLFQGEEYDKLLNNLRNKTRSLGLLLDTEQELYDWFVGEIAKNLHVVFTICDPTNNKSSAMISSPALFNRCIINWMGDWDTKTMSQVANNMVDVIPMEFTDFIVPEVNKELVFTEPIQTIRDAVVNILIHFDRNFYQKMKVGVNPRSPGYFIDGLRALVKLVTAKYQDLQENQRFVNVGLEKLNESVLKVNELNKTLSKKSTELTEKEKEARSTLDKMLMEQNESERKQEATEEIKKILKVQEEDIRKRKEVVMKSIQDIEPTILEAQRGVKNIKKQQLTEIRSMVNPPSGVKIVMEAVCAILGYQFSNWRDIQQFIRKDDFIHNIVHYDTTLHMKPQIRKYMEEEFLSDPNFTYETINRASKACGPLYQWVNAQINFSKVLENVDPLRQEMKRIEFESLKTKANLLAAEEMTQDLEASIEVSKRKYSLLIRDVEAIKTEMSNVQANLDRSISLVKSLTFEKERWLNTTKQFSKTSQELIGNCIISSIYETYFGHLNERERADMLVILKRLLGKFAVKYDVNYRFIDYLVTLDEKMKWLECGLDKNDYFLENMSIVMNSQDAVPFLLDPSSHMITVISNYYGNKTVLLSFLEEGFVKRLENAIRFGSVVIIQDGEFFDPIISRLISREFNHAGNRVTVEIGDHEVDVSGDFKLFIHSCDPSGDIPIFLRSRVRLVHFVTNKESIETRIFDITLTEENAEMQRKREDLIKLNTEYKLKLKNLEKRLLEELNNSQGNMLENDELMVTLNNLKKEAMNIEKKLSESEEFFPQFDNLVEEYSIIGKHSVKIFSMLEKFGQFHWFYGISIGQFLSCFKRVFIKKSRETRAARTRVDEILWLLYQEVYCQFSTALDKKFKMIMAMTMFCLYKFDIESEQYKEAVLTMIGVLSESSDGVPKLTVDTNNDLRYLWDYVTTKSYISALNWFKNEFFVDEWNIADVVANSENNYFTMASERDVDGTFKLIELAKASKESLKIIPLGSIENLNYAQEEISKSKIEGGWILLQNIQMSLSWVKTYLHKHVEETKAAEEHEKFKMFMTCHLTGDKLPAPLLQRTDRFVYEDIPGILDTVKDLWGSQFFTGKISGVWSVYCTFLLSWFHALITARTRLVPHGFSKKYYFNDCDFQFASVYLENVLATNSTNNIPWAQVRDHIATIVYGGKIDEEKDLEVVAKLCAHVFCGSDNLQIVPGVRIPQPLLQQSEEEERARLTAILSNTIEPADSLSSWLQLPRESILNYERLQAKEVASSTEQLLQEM
T1 sequence (P40960 whole entry, chain 2 of 4): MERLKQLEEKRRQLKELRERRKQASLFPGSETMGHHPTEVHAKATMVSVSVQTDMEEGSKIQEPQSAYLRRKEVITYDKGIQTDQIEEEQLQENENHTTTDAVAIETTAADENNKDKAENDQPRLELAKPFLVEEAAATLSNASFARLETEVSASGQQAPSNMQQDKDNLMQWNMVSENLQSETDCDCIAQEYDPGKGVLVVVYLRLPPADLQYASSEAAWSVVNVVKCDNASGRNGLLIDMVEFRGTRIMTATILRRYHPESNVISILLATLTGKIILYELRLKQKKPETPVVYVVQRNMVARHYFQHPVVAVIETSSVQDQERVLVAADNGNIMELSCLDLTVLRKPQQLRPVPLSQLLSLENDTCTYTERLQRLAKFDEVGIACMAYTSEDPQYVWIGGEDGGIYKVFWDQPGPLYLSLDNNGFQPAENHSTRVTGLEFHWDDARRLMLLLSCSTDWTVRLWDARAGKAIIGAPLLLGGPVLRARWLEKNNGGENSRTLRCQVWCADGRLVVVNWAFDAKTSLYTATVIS
T1 sequence (Q04949 whole entry, chain 3 of 4): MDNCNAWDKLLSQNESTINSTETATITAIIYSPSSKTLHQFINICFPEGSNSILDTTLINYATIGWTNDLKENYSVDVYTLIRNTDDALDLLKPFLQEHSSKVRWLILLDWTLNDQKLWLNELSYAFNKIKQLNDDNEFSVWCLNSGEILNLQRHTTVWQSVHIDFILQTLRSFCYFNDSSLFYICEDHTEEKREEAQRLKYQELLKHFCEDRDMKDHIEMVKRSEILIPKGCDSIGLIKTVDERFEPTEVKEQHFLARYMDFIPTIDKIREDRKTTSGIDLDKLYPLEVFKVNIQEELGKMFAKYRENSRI
T1 sequence (Q02647 whole entry, chain 4 of 4): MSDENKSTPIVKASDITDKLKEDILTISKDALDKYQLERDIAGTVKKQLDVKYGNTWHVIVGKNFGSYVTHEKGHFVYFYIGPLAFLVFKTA

Binder: B1
- stoichiometry N [1]: 2

Binder: B2
- binding result [2]: binds

Binder: B3
- stoichiometry N [3]: 1 LIS1 dimer per Ndel1 dimer

Binder: B4
- binding result [4]: binds
- binding result [2]: binds
- stoichiometry N [5]: 2
- stoichiometry N [6]: 1 Pac1 dimer per Ndl1 dimer

Binder: B5
- binding result [2]: binds

Binder: B6
- binding result [2]: binds
- stoichiometry N [5]: 2

Binder: B7
- binding result [2]: binds
